Experimental data: the DeepSol protein solubility set

experiment: soluble on expression in E. coli; label from the status in PepcDB or PDB records

Sequence	soluble on expression in E. coli
MAHVAFNLLHLPAKTLRNVFQLMSHSELFIFSFASICAKRLVKSMNFEMLELDLVYSRPCKLKISFGEHEEFIIEFDEFGTLSKQEPSDAFVFLIAYKLDIRDCINHVLEVYKISKLHTLKVIGAINNPQNLLKIIGKLDLKVLWIFFNFSENSTTISVYREILNHLGARCDVRSLRRGFYDKEPQKSFFLLRLSLSYALSQEPHSRPTATLAARRLKRRQDTQPLDATTSVLMLRSCRTVGRGTSLPTHPPFSFVIAPHYYSCTCSDIQGEPDKLQ	not soluble
ERNKVESTLLDKVLFLETLVDTIPAPVFYKDREGIYRGCNDLFAKMILGIPKEKVAGCSIDEFLEKIPQELGNVYKRTDRQLLQRGGSLIYESRIMCSDGLLRQFLINKAAYRNLNGDMEGLVGVMLDIT	not soluble
GHMFESAEVGHSIDKDTYEKAVIELREALLEAQFELKQQARFPVIILINGIEGAGKGETVKLLNEWMDPRLIEVQSFLRPSDEELERPPQWRFWRRLPPKGRTGIFFGNWYSQMLYARVEGHIKEAKLDQAIDAAERFERMLCDEGALLFKFWFHLSKKQLKERLKALEKDPQHSWKLSPLDWKQSEVYDRFVHYGERVLRRTSRDYAPWYVVEGADERYRALTVGRILLEGLQAALATKERAKRQPHAAPLVSSLDNRGLLDSLDLGQYLDKDAYKEQLAAEQARLAGLIRDKRFRQHSLVAVFEGNDAAGKGGAIRRVTDALDPRQYHIVPIAAPTEEERAQPYLWRFWRHIPARRQFTIFDRSWYGRVLVERIEGFCAPADWLRAYGEINDFEEQLSEYGIIVVKFWLAIDKQTQMERFKEREKTPYKRYKITEEDWRNRDKWDQYVDAVGDMVDRTSTEIAPWTLVEANDKRFARVKVLRTINDAIEAAYKKDKGA	soluble
MSLDTYTTSEVADLIGVHPNTVRLYEELNLIPKPKRNTNGYRIFNDFHIEQFRFARTALKIEVVQRGLRKDALEIVRTSANRDFDKAISLVNQYLQQLEIEKSNAEEALTIVAQILNGNTPETNKLFLTRKETAEHLNEGHHHHHH	not soluble
MTKLQLKYRELKIISVIAASENISHAATVLGIAQANVSKYLADFESKVGLKVFDRTTRQLMLTPFGTALLPYINDMLDRNEQLNNFIADYKHEKRGRVTIYAPTGIITYLSKHVIDKIKDIGDITLSLKTCNLERNAFYEGVEFPDDCDVLISYAPPKDESLVASFITQYAVTAYASQRYLEKHPISRPDELEHHSCILIDSMMIDDANIWRFNVAGSKEVRDYRVKGNYVCDNTQSALELARNHLGIVFAPDKSVQSDLQDGTLVPCFQQPYEWWLDLVAIFRKREYQPWRVQYVLDEMLREIRHQLAQSQQLRPEQAAESED	soluble
MQRLTSARLFKGAFNVGQKRATNASAGAAAVASRPQALPQPHQASTMTPPAAAPAVAAPQASLTRSASLVAPPSTSAPPSGAAPPMPKKKIIRRIIKRKKASAGVATGEAVHRAAAEAVSQTAAPAAPSEPAFAAATGAQPPRRGLAMLNAIRKHPEGSIEEQPQVVTEKHSEEMATAQEQYHEHTHDRHPAIQETEEAHEHHYHHDAASEKVTSSRYNAASAEAETDATGGSDAMDDATSNGSSSSRKTAMVKGYRIDEVGALCSSSDAMFARRLPSGGCQFFAWPGTPLSVASSAIVSMPDTIRTVHAVFGRAGTPIDIVMDIDAQVPQEYWTMSKIRVYQRKVLDDVLTPLKEEIEKIGEEIETQVVLQSPNLKKASFHVHTRLKDAAFADFYSLHGFLFRFQDRLPNVDLQIYRPNGMLRMFSCMKENRTSAIIVFDESKWNIGFPGGKVSDEQAALHSICVRDPSTFSRVLTFEAPRQSNMPAYGGSKGACGDGSEGALRPPQVLLPLTEKEAIESASRWLRQATEVEVGEWRTWIGLGLCAYRVAYHFRNARNLPRPAMAEMLDAWTEASRKCPLKFHSGECEARWAAFDPEKLGSQSDWWSAYKRLGRLEVPMREAMEREAAFAARCASRYQAAPAAEVPFAPEPPQSAAAVGSVTSASRKMKQQKKAFRRA	not soluble
SLSGGKYVDSEGHLYTVPIREQGNIYKPNNKAMADELSEKQVYDAHTKEIDLVNRDPKHLNDDVVKIDFEDVIAEPEGTHSFDGIWKASFSTFTVTKEG	soluble
MSSSPAVKGLTDEEQKTLEPVIKTYHQFEPDPTTCTSLITQRIHAPASVVWPLIRRFDNPERYKHFVKRCRLISGDGDVGSVREVTVISGLPASTSTERLEFVDDDHRVLSFRVVGGEHRLKNYKSVTSVNEFLNQDSGKVYTVVLESYTVDIPEGNTEEDTKMFVDTVVKLNLQKLGVAATSAPMHDDE	soluble
MGSDKIHHHHHHMTAAESIYALYPYIQHAQLLAHNEKIKQDNVIFTYTVSLSYDEISLRVLHVDSDNTKHIHIQVLFEINQGKIYVKDLYHNSGAAFELLTSIKSNPSLHQASFAQNSVPASWLSRDILNSLAIADRIAQKAINQYAGDDYRPGYYSQIECSGTQLILSQINHMNSRSLSHKENYSLRNLTFTIPLNGKADSEMLYNTDRIGIMNINFSDHSSANNRSAGDAVKNQIAEEIRLYQNDVE	not soluble
PDVDGMITLKVDNLTYRTSPDSLRRVFEKYGRVGDVYIPREPHTKAPRGFAFVRFHDRRDAQDAEAAMDGAELDGRELRVQVARYGRRDL	soluble
MDSPIINEQFWDALFFNGTMPWDRSQTPNELKHYLKRIADKTHSVFIPGCGAAYEVSHFVDCGHDVIAMDYSAEAVNLAKSQLGQHQDKVMLGDVFNADFSREFDVIYERAFLAALPREIWGDYFAMIERLLPSNGLLVGYFVISDDYRSRFPPFCLRSGEIEQKLEANFHLIESTPVTDSVDVFKGKEQWMVWQKLEHHHHHH	not soluble
MSLNRNDKRGARRNILAHYDLGNALFERLLDPTMMYSAAQFEHPGQTLEQAQLHKLERICQKLELSPDDHLLEIGSGWGSLAIHAATRYGCRVTTTTLSEAQYSHTLERVKALGLGQRVQVLREDYRDLQGTFDKLVSIEMIEAVGHRYLPVYFRQCASLLKPEGLMLLQAITIRDQRYAQAQRSVDFIQRYIFPGGALPSLSVLLDTASRHTGLNLVHMEDFGLDYAHTLRHWRENLRQARTALTDLGYDDMFQRLWEFYLCYCQGGFEERAIGVAHLLWAAEGHHHHHH	soluble
MGSDKIHHHHHHMRILTFTGKGGVGKTSVSAATAVRLSEMGHRTLVLSTDPAHSLSDSFNIQLGAEPTKIKENLHAIEVNPYVDLKQNWHSVQKYYTRIFMAQGVSGVMADEMTILPGMEELFSLLRIKRYKSAGLYDALVLDTAPTGETLRLLSLPDTLSWGMKAVKNVNKYIVRPLSKPLSKMSDKIAYYIPPEDAIESVDQVFDELEDIREILTDNVKSTVRLVMNAEKMSIKETMRALTYLNLYGFKVDMVLVNKLLDAQENSGYLEKWKGIQQKYLGEIEEGFSPLPVKKLKMYDQEIVGVKSLEVFAHDIYGDTDPSGMMYDEPPIKFVRQGDVYEVQLKLMFANPVDIDVWVTGDELFVQIGNQRKIITLPVSLTGLEPGDAVFKDKWLHIPFDLEKQGQHHRTREYNKA	not soluble
MKYNNHDKIRDFIIIEAYMFRFKKKVKPEVDMTIKEFILLTYLFHQQENTLPFKKIVSDLCYKQSDLVQHIKVLVKHSYISKVRSKIDERNTYISISEEQREKIAERVTLFDQIIKQFNLADQSESQMIPKDSKEFLNLMMYTMYFKNIIKKHLTLSFVEFTILAIITSQNKNIVLLKDLIETIHHKYPQTVRALNNLKKQGYLIKERSTEDERKILIHMDDAQQDHAEQLLAQVNQLLADKDHLHLVFE	soluble
MEHPEGEDPTLLPPALAARALGVSPATLRRYAALWERLVGPLPRDPRGGRLWPKEALARLRAAREAHLREGLPLEEALARVQGDFPALALPSEGEALALLRALAERLERVEGELRALREENARLREALKALEPPRRRPWWRFWGH	soluble
MAHHHHHHMILDLFDLCATPYAKRRSHLHSFMSELEDRLFRAEMALTQRRRSAVSPKEKRALGAVRPINVVVQEVLRETPILCFDEFQTFDVAHAALLAAFFSEAFREGLFFITTSNRPPEDLCRVSASFNAFLPVLRQHCHVVHCADIRDYRVKEAVERHHQLIFLHPNTKTNVERCCGVSSMLSGLVAESLHGSRRTHCGTTAAAS	soluble
MQKSYGVALESPTGSGKTIMALKSALQYSSERKLKVLYLVRTNSQEEQVIKELRSLSSTMKIRAIPMQGRVNMCILYRMVDDLHEINAESLAKFCNMKKREVMAGNEAACPYFNFKIRSDETKRFLFDELPTAEEFYDYGERNNVCPYESMKAALPDADIVIAPYAYFLNRSVAEKFLSHWGVSRNQIVIILDEAHNLPDIGRSIGSFRISVESLNRADREAQAYGDPELSQKIHVSDLIEMIRSALQSMVSERCGKGDVRIRFQEFMEYMRIMNKRSEREIRSLLNYLYLFGEYVENEKEKVGKVPFSYCSSVASRIIAFSDQDEEKYAAILSPEDGGYMQAACLDPSGILEVLKESKTIHMSGTLDPFDFYSDITGFEIPFKKIGEIFPPENRYIAYYDGVSSKYDTLDEKELDRMATVIEDIILKVKKNTIVYFPSYSLMDRVENRVSFEHMKEYRGIDQKELYSMLKKFRRDHGTIFAVSGGRLSEGINFPGNELEMIILAGLPFPRPDAINRSLFDYYERKYGKGWEYSVVYPTAIKIRQEIGRLIRSAEDTGACVILDKRAGQFRKFIPDMKKTSDPASDIYNFFISAQAREKYGA	soluble
MGSDKIHHHHHHMDSKSNSELARLEQAARAAWLYYVAKNTQDEIAQKLEVSRQSAQRLVALAVSEGLIKVRLDHPIVKCMELGQQLTQAFNLLECEIVPSDPADDSSVHGLAQCGAGVLERYLKSEQPKTLAFGTGRALKACIDELPSMQCPQHKIVSLLGNMMLDGSASAFDIVVSMANRVQAKHYPMPLPVIATSVAEKQLLHDLAPVKSIFELVIQADATFVGIGHMGAESPLLLDGFINQSQLTELINDNATGEIISWVYNQQGQLLDHSINELVMSSPLRIDSNKPVYGIAAGQHKVDAIFSALQGRLINSLITNEYTAERILAKLK	not soluble
KNTPVDAIPDLSDVQVIIKTSYPGQAPQVVEDQVTYPLTTAMLAVPGAETVRGYSFFGDSYVYIIFNDDTDMYWARSRVLEYLSQVAPKLPPNAKPTLGPDATGVGWVYSYVLQDKTGQHDLAELRSLQDWFLKYELQTVDGVSEVATVGGMVKQYQVQIDPAKLRAYNLTLQQVNMAIQNGNQETGASVVEVAEAEHMVRTTGYLTSIEDIKSLPLKVTDKGTPLLLGDIADINLGPQMRRGISELNGEGEAVGGVIVMRYGENASEVISKVKDKLEDLQRSLPDGVEIVTTYDRSTLINAAVDNLWKKLAEEFIVVAIVCALFLFHIRSS	not soluble
MFRRLGEKTTLYRAESPSQNSLASHHNSEVSLPSVDYSQEDRHSCNTLIGDEWSQNGDVIIQPLQKPSNTPTTQYERIITRREIANTESDLCKKLSLIVDLVSDFANDANRLYEGADELLKELRTKIRVYIYFLDVEMADVEKLLRFNVDRSTICDERIDWLLHFTKCHKEMRRVLNELSEEVCEDLESCLEMRAKGVIGKKPSSIILSTLSGMRNGMMTASKLLGCLPRQRA	not soluble
MTDLVAVWDVALSDGVHKIEFEHGTTSGKRVVYVDGKEEIRREWMFKLVGKETFFVGAAKTKATINIDAISGFAYEYTLEIDGKSLKKYMENRSKTTSTWVLRLDGEDLRVVLEKDTMDVWCNGQKMETAGEFVDDGTETHFSVGNHGCYIKAVSSRKRKEGIIHTLIVDNREIPELTQ	soluble
MSSSQVVRDSAKKLVNLLEKYPKDRIHHLVSFRDVQIARFRRVAGLPNVDDKGKSIKEKKPSLDEIKSIINRTSGPLGLNKEMLTKIQNKMVDEKFTEESINEQIRALSTIMNNKFRNYYDIGDKLYKPAGNPQYYQRLINAVDGKKKESLFTAMRTVLFGK	not soluble
